The text below walks through data of US20220251184A1 (Regeneron, published 2022).

One assay addresses T1, Mouse GDF6 (mouse, UniProt P43028 335-454, limits assumed).
T1 sequence (looked up): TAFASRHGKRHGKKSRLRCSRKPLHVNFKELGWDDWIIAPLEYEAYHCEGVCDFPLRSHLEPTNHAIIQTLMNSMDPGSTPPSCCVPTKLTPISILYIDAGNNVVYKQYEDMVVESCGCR
The assay can be described thus: BLI (Octet HTX), mAb captured on Protein A sensor, 100 nM ligand, 25 C. As to the method: (§1) Binding cross-reactivity of anti-BMP6 monoclonal antibodies to BMP6 family members, (Human: BMP6, BMP5, BMP7, BMP8A, BMP9, BMP10, BMP12, BMP14, BMP3b, Activin A, and GDF3 and mouse: BMP6 and GDF6) was determined using a real-time Bio-Layer Interferometry (BLI) biosensor using Octet HTX instrument. All binding studies were performed in 10 mM HEPES, 150 mM NaCl, 3 mM EDTA, 1 mg/mL BSA, 50 μg/mL Heparin, and 0.05% v/v Surfactant Tween-20, pH 7.4 (HBS-EBHT) buffer at 25° C. with the plate shaking at a speed of 1000 rpm. To assess binding cross-reactivity, Protein A coated Octet biosensor (Pall ForteBio Corp., #18-5010) was first dipped in wells containing […] of anti-BMP6 monoclonal antibodies for 4 minutes followed by submerging in wells containing 100 nM of different BMP6 family members for 4 minutes. The biosensors were washed in HBS-EBHT buffer in between every step of the experiment. At the end of each cycle, the Protein A biosensor was regenerated using three alternate 5 second dips in 10 mM Glycine pH 2.0 and 10 second dip HBS-EBHT buffer. The real-time binding response was monitored during the course of the experiment and the binding response at the end of every step was recorded and tabulated as shown in Tables 8A and 8B.
Background: BLI is a label-free optical method that tracks binding on a fibre tip over time.

For assay [1], the target named is T2, human BMP6 (R&D Systems, Cat #507-BP) (human, UniProt P22004 375-513, limits assumed).
T2 construct: Bought protein (R&D Systems 507-BP or 507-BP/CF); also called hBMP6; hBMP-6
T2 sequence: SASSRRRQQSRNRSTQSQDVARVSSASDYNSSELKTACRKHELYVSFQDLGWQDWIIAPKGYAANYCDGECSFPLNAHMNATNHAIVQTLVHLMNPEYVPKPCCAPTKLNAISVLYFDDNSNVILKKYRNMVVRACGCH
The assay is described as above. As to the method:
as §1

In the next assay the target is T3, Human BMP14/GDF5 (human, UniProt P43026 382-501).
T3 sequence (looked up): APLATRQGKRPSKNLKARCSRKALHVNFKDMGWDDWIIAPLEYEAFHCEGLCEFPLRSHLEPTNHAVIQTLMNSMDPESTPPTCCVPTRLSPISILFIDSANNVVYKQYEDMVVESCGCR
Described as above. As to the method: as §1

Another assay deals with T4, Human BMP8A (human, UniProt Q7Z5Y6 264-402, limits assumed).
T4 sequence (looked up): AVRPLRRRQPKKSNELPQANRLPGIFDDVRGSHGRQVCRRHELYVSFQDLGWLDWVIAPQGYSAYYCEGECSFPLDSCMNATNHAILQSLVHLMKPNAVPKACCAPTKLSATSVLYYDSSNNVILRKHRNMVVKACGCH
The description is as above. As to the method:
as §1

The next assay addresses T5, Human BMP9 (human, UniProt Q9UK05 320-429).
T5 sequence (looked up): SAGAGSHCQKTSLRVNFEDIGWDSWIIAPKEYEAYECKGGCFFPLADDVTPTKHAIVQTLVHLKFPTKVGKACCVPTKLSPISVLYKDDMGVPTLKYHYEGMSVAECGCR
Described as above. As to the method: as §1

Assay [2] concerns the target T6, mouse BMP6 (R&D Systems, Cat #6325-BM) (mouse, UniProt P20722 372-510, limits assumed).
T6 construct: Bought protein (R&D Systems 6325-BM or 6325-BM/CF); also called mBMP6
T6 sequence: T2 sequence with A21S, V23G, S25G, A26S, S31G, R39K
The assay is described as above. As to the method:
as §1

In the next assay the target is T7, Human BMP10 (human, UniProt O95393 317-424).
T7 sequence (looked up): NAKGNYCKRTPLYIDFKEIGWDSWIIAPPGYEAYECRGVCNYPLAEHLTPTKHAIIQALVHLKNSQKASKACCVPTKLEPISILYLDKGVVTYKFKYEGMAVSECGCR
The description is as above. As to the method:
as §1

The target of assay [3] is T2, human BMP6 (R&D Systems, Cat #507-BP). The assay can be described thus: SPR (MASS-1), mAb captured on anti-human Fc, hBMP6 in solution, 37 C. As to the method:
Equilibrium dissociation constants (KD values) for human and mouse BMP6 binding to purified anti-BMP6 monoclonal antibodies of this invention were determined using a real-time surface plasmon resonance (SPR) biosensor instrument, MASS-1. All binding studies were performed in 10 mM HEPES, 150 mM NaCl, 3 mM EDTA, 1 μg/mL Heparin, and 0.05% v/v Surfactant Tween-20, pH 7.4 (HBS-EHT) running buffer at 25° C. and 37° C. The HCA sensor surface was first derivatized by amine coupling the monoclonal mouse anti-human Fc antibody (GE, #BR100839) and anti-BMP6 monoclonal antibodies were individually captured. Different concentrations of human BMP6 reagents (hBMP6; R&D Systems, Cat #507-BP; 60 nM-0.94 nM; 4-fold serial dilution) or mouse BMP6 (mBMP6; R&D Systems, Cat #6325-BM; 60 nM and 15 nM) prepared in HBS-EHT running buffer were injected over the captured anti-BMP6 monoclonal antibody for 4 minutes at a flow rate of 30 μL/minute, while the dissociation of BMP6 reagent bound to captured anti-BMP6 monoclonal antibody was monitored for 10 minutes in HBS-EHT running buffer. Kinetic association (kₐ) and dissociation (kd) rate constants were determined by fitting the real-time binding sensorgrams to a 1:1 binding model with mass transport limitation using Scrubber 2.0c software. Binding dissociation equilibrium constant (KD) and dissociative half-life (t½) for different anti-BMP6 monoclonal antibodies were calculated from the kinetic rate constants as: […]

The kon is the rate constant with which the complex forms. Lower therefore signals slower complex formation. A word on the Kd: it is the equilibrium constant for the complex coming apart. Low values mean a tighter complex, high ones a looser complex.

Residue numbers refer to the chain shown, from its start.

B1: H4H17871P (antibody, V domains shown)
VH: EVQLVESGGGLVQPGGSLRLSCAASGFTFNNYAMSWVRQAPGKGLEWVSAISGSGDSTYYADSVKGRFTISRDNSKNTLYLQMNSLRAEDTAVYYCAKRSRSSPFDPWGQGTLVTVSS
VL: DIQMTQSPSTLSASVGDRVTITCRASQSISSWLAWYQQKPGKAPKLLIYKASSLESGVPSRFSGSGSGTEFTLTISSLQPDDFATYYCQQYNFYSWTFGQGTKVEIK
notes: Fully human antibody; also called anti-BMP6 monoclonal antibody; BMP6 antibody of the invention
Turning to B1, the binding response in the assay with Mouse GDF6 is -0.02 nm; in assay [1], 0.21 nm; in the assay with Human BMP14/GDF5, -0.01 nm; with Human BMP8A, 0 nm; with Human BMP9, 0.01 nm; in assay [2] it was 0.09 nm. In the assay with Human BMP10, this molecule had a binding response of 0.01 nm. The molecule further came in with a kon in assay [3] of 41600 M⁻¹ s⁻¹.

B2: H4H17855P (antibody, V domains shown)
VH: B1 VH with N30S, N31S, D56G, S57R, A61T, I70M, S100P, R101Y, S102N
VL: EIVLTQSPGTLSLSPGEGATLSCRASQSVSSSYLAWYQQKPGQAPRLLIYGASSRATGIPDRFSGSGSGTDFTLTISRLEPEDFVVYYCQHFGGTPFTFGGGTKVEIK
notes: as for B1
Turning to B2, the binding response in the assay with Mouse GDF6 was -0.02 nm; in assay [1], 0.29 nm; with Human BMP14/GDF5, -0.02 nm; with Human BMP8A it was -0.02 nm; with Human BMP9 it was 0 nm; in assay [2], 0.09 nm. In the assay with Human BMP10, this molecule yielded a binding response of -0.01 nm. The molecule also returned a Kd in assay [3] of 1.34 nM. The kon in assay [3] was 61100 M⁻¹ s⁻¹. In assay [3], this molecule registered a t1/2 of 2.35 h.
